{"source": "FireProtDB (doi:10.1002/pro.5560010205)", "settings": "Mus musculus; pH 4; 23 °C; GdnHCl; Fluorescence; sodium phosphate 100 mM; reversible: yes; whole UniProt chain shown", "data": [{"protein": "Beta-nerve growth factor wild type, P01139 (protein) MSMLFYTLITAFLIGVQAEPYTDSNVPEGDSVPEAHWTKLQHSLDTALRRARSAPTAPIAARVTGQTRNITVDPRLFKKRRLHSPRVLFSTQPPPTSSDTLDLDFQAHGTIPFNRTHRSKRSSTHPVFHMGEFSVCDSVSVWVGDKTTATDIKGKEVTVLAEVNINNSVFRQYFFETKCRASNPVESGCRGIDSKHWNSYCTTTHTFVKALTTDEKQAAWRFIRIDTACVCVLSRKATRRG", "values": [{"measurement": "unfolding free energy", "value": 60.7, "unit": "kJ/mol"}]}]}
